Data as given in the supplement of paper PMC10724198.
± gives the standard deviation of the averaged measurements.

Test system: Saccharomyces cerevisiae
Test: protein stability index of tFT-peptide fusion (C-terminal peptide) (PSI (0-1 scale)); higher = more stable (slower turnover)
Settings: genetic background: wild type; temperature: 30 C
Procedure: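 Multiplexed protein stability (MPS) profiling in S. cerevisiae. Random 12-aa peptides (tFT-X12 library) are fused to the C-terminus of a sfGFP-mCherry tandem fluorescent timer, after mCherry and a GGGS linker. Cells are FACS-sorted into 8 mCherry/sfGFP bins and deep-sequenced. The protein stability index (PSI) is the read-weighted bin average, scaled from 0 (unstable) to 1 (stable). Only peptides with >10 reads are reported; cells were grown at 30 °C in SC-His with glucose.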
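Also: PSI is a weighted mean of sequencing reads over stability bins, variants kept only with over 10 reads, mCherry proximal and sfGFP distal, peptide attached via GGGS linker.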

| Sequence | protein stability index |
| --- | --- |
| GCGDIFAEQLLL | 0.7227 ± 0.0041 |
| GEPGRLNSSLFA | 0.678 ± 0.051 |
| LPPPAPSPAPPH | 0.593 ± 0.12 |
| GHVEGPGDAESS | 0.701 ± 0.071 |
| PSKMPNSTLRAE | 0.682 ± 0.065 |
| VGAEGWAVAGDM | 0.77 ± 0.078 |
| GGVGEFGEGALA | 0.689 ± 0.044 |
| ACGDRGGRCSEG | 0.678 ± 0.089 |
| GRQTEENRKRRV | 0.7 ± 0.037 |
| LPLLALLDVPLP | 0.683 ± 0.018 |
| PSLSYSRPPHPS | 0.681 ± 0.027 |
| AKVRGGKGLRLV | 0.6687 ± 0.003 |
| GNGEGRKPPRPP | 0.619 ± 0.014 |
| NARPSPRSHSLE | 0.6921 ± 0.0065 |
| PPPPVFPQPTPA | 0.6425 ± 0.0023 |
| RRTTYKKVKRKK | 0.65 ± 0.062 |
| RVRDPQQISILL | 0.65 ± 0.025 |
| SPPVPLSPPLSP | 0.537 ± 0.023 |
| IIRKTKSKQEMI | 0.706 ± 0.039 |
| RLPPPLPQAPPT | 0.712 ± 0.023 |
| WGCGGGRDGCGV | 0.647 ± 0.095 |
| YSPFGKRLLPPC | 0.702 ± 0.057 |
| ERGGWGVGSEVG | 0.719 ± 0.03 |
| DVGWRVFVFGGL | 0.704 ± 0.038 |
| GGRRTLFCRFSY | 0.702 ± 0.017 |

| Sequence | protein stability index |
| --- | --- |
| QCASPRLSLGSP | 0.703 ± 0.03 |
| WWGGGGGMQGVR | 0.674 ± 0.0096 |
| PLCVFHYSSDDY | 0.705 ± 0.054 |
| CVTFGGCGVWYV | 0.624 ± 0.018 |
| GVEVVVWRSGGI | 0.688 ± 0.019 |
| LSDSSDSTLGAI | 0.667 ± 0.029 |
| PFVIFHSCFSLV | 0.543 ± 0.011 |
| ERRELSAHVYLD | 0.665 ± 0.1 |
| KKKKKNKKKTIK | 0.6886 ± 0.0046 |
| WDVVECCLWRYR | 0.681 ± 0.034 |
| SPTDSDINIPRV | 0.714 ± 0.05 |
| RGRDLSLCQFFY | 0.7364 ± 0.0024 |
| QNKKEKRHKTKT | 0.648 ± 0.02 |
| LVGRRGVVGIVP | 0.63 ± 0.075 |
| VFPIISYPHTKS | 0.6779 ± 0.0064 |
| GGLGGAGAGVVC | 0.694 ± 0.11 |
| RPEAVARIFDDE | 0.724 ± 0.013 |
| SGHGGAARRPAP | 0.733 ± 0.08 |
| PPPLPPQTLTFC | 0.729 ± 0.075 |
| SLDDWSAVFHVV | 0.542 ± 0.012 |
| VRGVGGLWVGAV | 0.684 ± 0.012 |
| ASPPAYCPPPPP | 0.666 ± 0.039 |
| ESTKKQSTAPKN | 0.714 ± 0.043 |
| AQRNSPIVLAVL | 0.527 ± 0.0063 |
| KTKKKKKKKINK | 0.711 ± 0.11 |

| Sequence | protein stability index |
| --- | --- |
| SNFKKRKERFGR | 0.7048 ± 0.0063 |
| VRVRSLEGWGMG | 0.6687 ± 0.0048 |
| DLCITNTMLFYL | 0.7025 ± 0.006 |
| GLSRAWVAGVRG | 0.735 ± 0.037 |
| PLPSVPESPAPP | 0.693 ± 0.045 |
| PRHVISQCFSRT | 0.6641 ± 0.005 |
| QREGPEKRTHGR | 0.709 ± 0.038 |
| PLPRLPSSLSRP | 0.697 ± 0.023 |
| GIGVRLGFWCRG | 0.75 ± 0.05 |
| VGGGGGGCLVDC | 0.653 ± 0.028 |
| RGRPEVRPPGHY | 0.707 ± 0.03 |
| ILPCSRYNILNV | 0.659 ± 0.0078 |
| FLFTLPPPPRCH | 0.709 ± 0.088 |
| TPPLRPLLYSNA | 0.53 ± 0.059 |
| IKNEKKKKKNKK | 0.7 ± 0.035 |
| RSSGAFKVCTDR | 0.684 ± 0.019 |
| PPPHPPPPASPP | 0.653 ± 0.034 |
| PSRPPALPPPAT | 0.721 ± 0.014 |
| GRSPEIGPHIVN | 0.699 ± 0.014 |
| SPLALATPLSDP | 0.699 ± 0.039 |
| DSCGVFLGDFFQ | 0.727 ± 0.026 |
| VGPVGSVGVGGR | 0.654 ± 0.013 |
| PPSPPPPPPPTP | 0.699 ± 0.043 |
| HNKTTNGNSHKN | 0.715 ± 0.073 |
| SGKSSFLGAVWV | 0.711 ± 0.0061 |

| Sequence | protein stability index |
| --- | --- |
| PSHLPRARRPPR | 0.686 ± 0.011 |
| HPPLLPPPTPTS | 0.752 ± 0.062 |
| DWYLVGGRVFWV | 0.721 ± 0.015 |
| CWGAGPRLVRVW | 0.4998 ± 0.00039 |
| ICSVGGFWLSCV | 0.596 ± 0.032 |
| NLAGLVREYSGY | 0.684 ± 0.011 |
| SLSVMSAPLVGI | 0.636 ± 0.056 |
| WVTLGMGGECMR | 0.818 ± 0.14 |
| RSLGLVGRGFWG | 0.728 ± 0.086 |
| AIIERVEQIVTA | 0.522 ± 0.052 |
| CACIPLHFAPSL | 0.683 ± 0.04 |
| GREVRGLRVPGS | 0.653 ± 0.071 |
| RWAMGAAGGLQA | 0.697 ± 0.021 |
| DPRSPLSHSFLR | 0.706 ± 0.044 |
| LSGNLLLSSLLQ | 0.654 ± 0.049 |
| KKIKKHEKKKNK | 0.721 ± 0.053 |
| CKCRRYYTLNGG | 0.656 ± 0.025 |
| PSRSCSAPLHPN | 0.78 ± 0.056 |
| SPPPPPPPHSPD | 0.654 ± 0.071 |
| PPPPPPPPAPPS | 0.68 ± 0.035 |
| PSPPYPPPSLPH | 0.69 ± 0.044 |
| RPPISLGSLLVG | 0.714 ± 0.1 |
| VEHVRIGGGGKS | 0.7 ± 0.013 |
| GCGSGGLGGWRW | 0.746 ± 0.18 |
| PRYCVQQNPQDR | 0.722 ± 0.044 |

| Sequence | protein stability index |
| --- | --- |
| PPPPPLLPPSLR | 0.671 ± 0.073 |
| DKVIIRKLRTSK | 0.6863 ± 0.0051 |
| HRFEEGAPAPTE | 0.704 ± 0.013 |
| PGRVAGGCGVLG | 0.64419 ± 0.00049 |
| LLRLTGRRHVGG | 0.748 ± 0.2 |
| GEPGQTSGREKT | 0.641 ± 0.014 |
| GLVCSHLRTAGS | 0.6857 ± 0.0063 |
| SPHTRPDPPPLP | 0.681 ± 0.071 |
| TLPRSLGPSSPA | 0.753 ± 0.076 |
| GGGGGGVECRVG | 0.671 ± 0.086 |
| LIRFFSSSRPGS | 0.671 ± 0.15 |
| PGSLRGATRPNQ | 0.739 ± 0.17 |
| YPGSCFLDTGIW | 0.6666 ± 0.0062 |
| IGHVVTWCFGRV | 0.6898 ± 0.0041 |
| GERLVGGWHIWN | 0.706 ± 0.015 |
| ITHLFRSSIYSR | 0.683 ± 0.12 |
| KKDFTTKSKEYR | 0.7125 ± 0.0026 |
| LPPLPLPPAPSA | 0.621 ± 0.042 |
| GLPPPSPPVPLL | 0.683 ± 0.043 |
| HQPSPFPKNSPT | 0.717 ± 0.06 |
| RWLGGTGGWKSR | 0.673 ± 0.041 |
| NSYVGSSTYVIV | 0.692 ± 0.033 |
| GGCRSVGWGREG | 0.676 ± 0.029 |
| FAWYSFYSPPPR | 0.667 ± 0.0048 |
| VGEGWWQKGMEV | 0.676 ± 0.079 |

| Sequence | protein stability index |
| --- | --- |
| GGRPDQARPSRH | 0.741 ± 0.043 |
| VSDTRELSSDQI | 0.656 ± 0.02 |
| PPVPPPLPYLPP | 0.624 ± 0.031 |
| THLDKLYPKEHT | 0.689 ± 0.054 |
| VTRLTGKLVAEK | 0.576 ± 0.027 |
| RWGPGAVWGRGR | 0.707 ± 0.068 |
| PPPRPPPPLSHS | 0.632 ± 0.04 |
| PHPRHQPNLRPT | 0.664 ± 0.024 |
| LSLPSLLLRLSL | 0.644 ± 0.023 |
| PPPRFCSLPDHL | 0.636 ± 0.049 |
| KIGYTISGFVIS | 0.707 ± 0.054 |
| PPHPHNPRPSTP | 0.6548 ± 0.0046 |
| HINVAVAKYSRQ | 0.697 ± 0.047 |
| FVCRRDIMSGIF | 0.6565 ± 0.0052 |
| FPSPPLPSSSTS | 0.708 ± 0.051 |
| VPLPPPFPASLT | 0.61 ± 0.027 |
| TPSPHTPLPLAP | 0.708 ± 0.09 |
| SCNILPRFSPLL | 0.723 ± 0.033 |
| AGERQIRISING | 0.691 ± 0.031 |
| SVCEWSRVGIRL | 0.6476 ± 0.0056 |
| TLPVKAGHWRLG | 0.73084 ± 0.00065 |
| PGFTLLDFCLYH | 0.725 ± 0.0091 |
| GTDWRDKADLRG | 0.7071 ± 0.0046 |
| PLPRFLTLTLSQ | 0.652 ± 0.023 |
| GDDCQYLVVPVR | 0.701 ± 0.052 |

| Sequence | protein stability index |
| --- | --- |
| PWGSPLMACRSC | 0.694 ± 0.02 |
| GGGGGVGVVRVG | 0.66 ± 0.032 |
| KKEKVKKKKGNN | 0.723 ± 0.013 |
| PPDYPAPPPPPL | 0.695 ± 0.034 |
| SGSDGLLVGAPG | 0.666 ± 0.047 |
| LLFLGSSLRDTF | 0.759 ± 0.0098 |
| LGVPGSGDGEWW | 0.592 ± 0.029 |
| YWEVYAGLSLWV | 0.63 ± 0.0048 |
| ILLFLLPFSHRL | 0.658 ± 0.076 |
| GMQVRNTKERRG | 0.714 ± 0.02 |
| SILPRWEFKSLS | 0.802 ± 0.06 |
| FWGGRGGVGLAV | 0.601 ± 0.1 |
| RIKEYITDEKNR | 0.674 ± 0.056 |
| GLGPMPRGTSTI | 0.692 ± 0.1 |
| SLPPPLPPPAPP | 0.614 ± 0.04 |
| TIPSHPLLPTLC | 0.648 ± 0.049 |
| KGDAQASSDLTL | 0.691 ± 0.014 |
| LRRLSTGTLSIL | 0.724 ± 0.057 |
| SQGLWRGVALTG | 0.7325 ± 0.0017 |
| IRRPSVTAIRPS | 0.667 ± 0.08 |
| PSPPPSSPPPRS | 0.686 ± 0.051 |
| LLLSSPPFPALL | 0.638 ± 0.0074 |
| GCAVLGCLVLSA | 0.655 ± 0.088 |
| PLPLLSLPRFPL | 0.753 ± 0.1 |
| DGRRRHCYTITA | 0.661 ± 0.031 |

| Sequence | protein stability index |
| --- | --- |
| PPGVTPLSLCAC | 0.534 ± 0.0088 |
| GGGGETGRERKD | 0.655 ± 0.0061 |
| FWRPIPQSPLPQ | 0.7203 ± 0.002 |
| ATRRYQYSPHKV | 0.651 ± 0.026 |
| SSSFFLFPVGFF | 0.784 ± 0.14 |
| DIVVGANISSIN | 0.641 ± 0.02 |
| PPPPPRPPRLLS | 0.651 ± 0.1 |
| KYRHDFNEVSKT | 0.665 ± 0.036 |
| RRRRAVGPREAP | 0.717 ± 0.17 |
| NISSFKHVLAYK | 0.624 ± 0.06 |
| RTRPCNGPGRFG | 0.724 ± 0.057 |
| RESSAYPPPGEG | 0.6551 ± 0.005 |
| NTQPSNRTQRKY | 0.669 ± 0.1 |
| VGGVWGGGWGHW | 0.736 ± 0.021 |
| RSSGPPCLIPLP | 0.787 ± 0.047 |
| SPTGTPIIPSYP | 0.684 ± 0.0098 |
| PSSEGHMEDTAA | 0.684 ± 0.018 |
| RRREESGEGSEQ | 0.635 ± 0.073 |
| SARQCWFSLSDD | 0.639 ± 0.043 |
| PFSSVFNPGVLS | 0.644 ± 0.017 |
| EGGRGGGRGVVG | 0.67 ± 0.027 |
